What was measured:
WT mice = assay: ICV infusion in adult WT mice, D/LT and EPMT tests; assay type: in vivo, mouse; conditions: ICV 3 or 10 ng/hour for one month
Method: FIG. 8. Osteocalcin improves cognitive function in adult wild-type (WT) mice. Results from dark and light (DLT) and elevated plus maze tests (EPMT) performed in 3-month old WT mice infused ICV with vehicle (PBS) or Ocn (3, 10, 30 ng/hour) are shown. (A) DLT measuring the latency to enter, the number of entries, and the time spend in lit compartment. (B) EPMT measuring the number of entries into open arms and the time spend in lit compartments.
Each mouse was allowed to explore the apparatus for 5 min. Global activity was assessed by measuring the number of entries […] (David et al, 2009, Neuron 62:479-493). Anxiety was assessed by comparing the time spent in the open arms.
The test was performed in a quiet, darkened room. Mice were individually housed in cages containing a handful of bedding from their home cage and acclimated to the room at least 1 h before the test. Naïve mice were placed individually in the testing chamber in the dark compartment. The test was 5 min in duration, and time spent and number of entries in light compartments were recorded a highly trained observer, blind to the genotype of the mice. […]

[1] = tested on: brainstem neurons, neurons of the locus coeruleus, GABAergic interneurons of the hindbrain; assay: Electrophysiology, whole cell current clamp recording in brain slices; assay type: cell-based, mouse
Method: Brain slice preparations and electrophysiological recordings were performed according to methods known in the art. Briefly, WT mice were anesthetized with ether and then decapitated. The brains were rapidly removed and immersed in an oxygenated bath solution at […] containing (in mM): sucrose 220, KCl 2.5, CaCl2 1, MgCl2 6, NaH2PO4 1.25, NaHCO3 26, and glucose 10 pH 7.3 with NaOH. Coronal slices (350 μm thick) containing dorsal raphe (DR) were cut on a vibratome and maintained in a holding chamber with artificial cerebrospinal fluid (ACSF) (bubbled with 5% CO2 and 95% O2) containing (in mM): NaCl 124, KCl 3, CaCl2 2, MgCl2 2, NaH2PO4 1.23, NaHCO3 26, glucose 10, pH 7.4 with NaOH, and were transferred to a recording chamber constantly perfused with bath solution (330 C) at 2 ml/min after at least a 1 hr recovery. Whole-cell current clamp was performed to observe action potentials in DR serotoninergic (5-HT) neurons with a Multiclamp 700A amplifier (Axon instrument, CA). Patch pipettes with a tip resistance of 4-6 MS2 were made of borosilicate glass (World Precision Instruments) with a Sutter pipette puller (P-97) and filled with a pipette solution containing (in mM): K-gluconate (or Cs-gluconate) 135, MgCl2 2, HEPES 10, EGTA 1.1, Mg-ATP 2, Na2-phosphocreatine 10, and Na2-GTP 0.3, pH 7.3 with KOH. After a giga-Ohm (GΩ) seal and whole-cell access were achieved, the series resistance (between 20 and 40 MΩ) was partially compensated by the amplifier. […] Electrophysiological data were analyzed with Axograph 4.9 and plotted with Igor Pro software (WaveMetrics, Lake Oswego, Oreg.).
To determine if osteocalcin acts directly on neurons to modulate neurotransmitter synthesis, several types of assays were performed. […] Third, to further confirm that osteocalcin signals in neurons of the hindbrain, calcium flux in MPHN treated with undercarboxylated or carboxylated osteocalcin (FIG. 3F) was measured. […]

B1: uncarboxylated osteocalcin: Recombinant osteocalcin bacterially produced, cleaved from the GST subunit; completely undercarboxylated at all three sites (protein, listed as Homo sapiens)
chain: MRALTLLALLALAALCIAGQAGAKPSGAESSKGAAFVSKQEGSEVVKRPRRYLYQWLGAPVPYPDPLEPRREVCELNPDCDELADHIGFQEAYRRFYGPV
modifications: uncarboxylated
notes: Recombinant osteocalcin bacterially produced, cleaved from the GST subunit; completely undercarboxylated at all three sites
exploration of the lit compartment and open arms in D/LT and EPM tests (WT mice; WT mice): increase in the exploration
anxiety-like behavior (D/LT and EPMT) (WT mice; WT mice implanted at 2 months): decrease in anxiety-like behavior
action potential frequency of the GABAergic interneurons of the hindbrain [1]: inhibits
action potential frequency in neurons of the locus coeruleus ([1]; whole cell current clamp): decreases
action potential frequency of brainstem neurons ([1]; whole cell current clamp): activates
